The source of these data is paper PMC10432815.

In assay [1] the target is medaka Opn5m (medaka).
In assay [2] the target is medaka Opn5m (medaka). This is another data set of the same source.

As for medaka Gα11c (natural protein), the relative aequorin luminescence (calcium response) after UV light, 293TΔGQ cells cotransfected with OlOpn5m and medaka Gα: against OlGαq, OlGα11a and OlGα11b with medaka Opn5m (medaka) [1] is 24 fold.

As to medaka Gα14a (natural protein), the relative aequorin luminescence (calcium response) after UV light, 293TΔGQ cells cotransfected with OlOpn5m and medaka Gα: against OlGαq, OlGα11a and OlGα11b with medaka Opn5m (medaka) [1] came to 24 fold.

B1: mouse Gα14 (natural protein)
chain: MAGCCCLSAEEKESQRISAEIERQLRRDKKDARRELKLLLLGTGESGKSTFIKQMRIIHGSGYSDEDRKGFTKLVYQNIFTAMQAMIRAMDTLRIQYMCEQNKENAQIIREVEVDKVTALSRDQVAAIKQLWLDPGIQECYDRRREYQLSDSAKYYLTDIERIAMPSFVPTQQDVLRVRVPTTGIIEYPFDLENIIFRMVDVGGQRSERRKWIHCFESVTSIIFLVALSEYDQVLAECDNENRMEESKALFRTIITYPWFLNSSVILFLNKKDLLEEKIMYSHLISYFPEYTGPKQDVKAARDFILKLYQDQNPDKEKVIYSHFTCATDTENIRFVFAAVKDTILQLNLREFNLV
B1: the relative aequorin luminescence (calcium response) after UV light, ATR-reconstituted OlOpn5m in 293TΔGQ cells: mGα14 against mGαq in the assay with medaka Opn5m (medaka) [2] was determined as 27 fold.
